Results on two substances are retold here after patent US20140170162A1, “PRESERVATION OF THE NEUROMUSCULAR JUNCTION (NMJ) AFTER TRAUMATIC NERVE INJURY” (The Regents of the University of California, priority 2012, published 2014).

Data set [1] concerns the target His-labeled rat recombinant agrin (R&D Systems) (UniProt P25304).
A further data set concerns C212 myotubes. Briefly: In vitro assessment of AChR clustering in myotubes. In kind it is cell-based. Particulars: FIG. 3A, B. As for the experimental part:
C212 cells were purchased from ATCC (Manassas, Va.). Cells were expanded and differentiated into myotubes as previously described. Five days following differentiation, myotubes were then treated overnight with […] His-labeled rat recombinant agrin (R&D Systems, Minneapolis, Minn.) or […] rat recombinant agrin incubated with […] MMP3 active subunit (Millipore, Billerica, Mass.) for 72 hours. Western blot was performed to confirm cleavage of agrin. After treatment of myotubes with Alexa 555-conjugated a-bungarotoxin (a-BTX; Invitrogen, Carlsbad, Calif.; 1:1,000), samples were fixed according to standard procedures for immunohistochemistry. Ten random fields at 40 magnification were evaluated by a blinded observer for AChR clustering under fluorescent microscopy as previously described. An AChR cluster was defined as an aggregate of at least 4 lm2. Three samples from each treatment group were analyzed.
Agrin was cleaved by MMP3, resulting in a 60 kDa fragment as detected by silver stain.

Chain of UniProt P25304 (P25304 1153-1959): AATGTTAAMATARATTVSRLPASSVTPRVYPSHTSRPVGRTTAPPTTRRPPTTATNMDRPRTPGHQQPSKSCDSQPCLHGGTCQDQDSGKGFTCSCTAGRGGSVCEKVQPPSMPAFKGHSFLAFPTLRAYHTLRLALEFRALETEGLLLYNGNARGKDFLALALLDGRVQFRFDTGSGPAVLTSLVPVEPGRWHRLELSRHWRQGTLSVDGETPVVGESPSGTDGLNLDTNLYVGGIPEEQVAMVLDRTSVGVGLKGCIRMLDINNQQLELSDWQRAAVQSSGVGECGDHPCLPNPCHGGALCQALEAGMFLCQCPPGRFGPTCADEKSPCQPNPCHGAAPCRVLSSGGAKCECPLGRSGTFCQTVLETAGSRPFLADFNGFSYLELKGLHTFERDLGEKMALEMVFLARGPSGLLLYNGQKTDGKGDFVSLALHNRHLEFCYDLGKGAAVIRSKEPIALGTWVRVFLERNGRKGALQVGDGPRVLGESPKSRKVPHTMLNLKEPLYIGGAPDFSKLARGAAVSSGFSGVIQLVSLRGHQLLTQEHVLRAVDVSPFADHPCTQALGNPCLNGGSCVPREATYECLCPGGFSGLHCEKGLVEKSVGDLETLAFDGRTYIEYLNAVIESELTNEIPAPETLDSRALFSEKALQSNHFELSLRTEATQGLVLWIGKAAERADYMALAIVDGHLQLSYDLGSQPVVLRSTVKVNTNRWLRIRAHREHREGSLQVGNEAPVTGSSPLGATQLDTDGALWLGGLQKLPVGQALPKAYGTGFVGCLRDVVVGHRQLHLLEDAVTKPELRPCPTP

On to MMP3 active subunit (Millipore), for which, in data set [1], the “AChR clusters/field in C212 myotubes (agrin processed by MMP3, against 7.30 for agrin alone)” value was 7.30 6 0.578 clusters/field vs 2.20 6 0.467 clusters/field; the “cleavage of agrin (silver stain)” value was “Agrin was cleaved by MMP3, resulting in a 60 kDa fragment as detected by silver stain”; the “degradation of 90 kDa agrin after 72 hours” value is “Treatment with MMP3 for 72 hours led to complete degradation of 90 kDa agrin”.

Consider “agrin: His-labeled rat recombinant agrin (R&D Systems), approximately 90 kDa”, for which the “AChR clustering (images)” value in the data set on C212 myotubes is reported as “clustering”.
